Data from patent US20200079848A1 (Five Prime, published 2020).
Where “and” joins values, the source holds several entries; their conditions need not be identical. Identical values can stand only once. Blank lines part the entries; values can stand above or below the binder they belong to.

Assays:
[1] = target: T1, human ILT4 (hILT4) expressed on cells (human, UniProt Q8N423 22-597); test: antibody titration flow cytometry binding assay on transfected cells, nonlinear regression
T1 construct: hILT4 on transfected CHO or 293T cells, or native on human monocytes and macrophages; also called LILRB2

human LILRA1 [2] = target: T2, human LILRA1 (human, UniProt O75019 17-489); test: as above
T2 construct: whole, on cells; also called hLILRA1; LIRA1

human LILRA3 [3] = target: T3, human LILRA3 (human, UniProt Q8N6C8 24-439); test: as above
T3 construct: whole, on cells; also called hLILRA3; LIRA3

hILT4-His-Avi tag [4] = target: T4, hILT4-His-Avi tag (human, UniProt Q8N423 22-459); test: SPR Biacore T200, 37 C; antibody captured on protein A/G chip, monomeric hILT4 as analyte; kinetic fit
T4 construct: also called monomeric human ILT4; extracellular region of hILT4 linked to a His-Avi tag
Procedure: The binding kinetics of the parent and germline reversion mutant anti-hILT4 antibodies (in the context of IgG1.3) were measured via Surface Plasmon Resonance (SPR) using a Biacore® T200 instrument. The assay temperature was 37° C. and the running buffer was PBS pH 7.4 supplemented with 0.05% Tween-20. Allanti-hILT4 antibodies were captured on a CM4 chip with pre-immobilized protein A/G (Pierce Thermo Scientific catalog number 21186). […] Monomeric human ILT4 was injected as analyte. […] The hILT4 used in this experiment, comprising the extracellular region of hILT4 linked to a His-Avi tag, consists of the following amino acid sequence: […]

hILT4-His-Avi tag [5] = target: T4, hILT4-His-Avi tag; test: SPR Biacore T200, 37 C; antibody captured by anti-human Fc on CM4 chip, hILT4-His-Avi as analyte; 1:1 Langmuir fit
Procedure: The running buffer was 10 mM HEPES pH 7.4 supplemented with 0.05% Tween-20 and 1 g/L BSA. All anti-ILT4 antibodies were captured on a CM4 chip with pre-immobilized anti-human Fc capture antibody from Southern Biotech (catalog number 2081-01). […] All data were double-referenced and fitted to a 1:1 Langmuir model with mass transport using Biacore T200 Evaluation Software version 3.1.

human LILRA2 = target: T5, human LILRA2 (human, UniProt Q8N149 24-483); test: flow cytometry, 293T transfectants, antibody 20 µg/ml; stacked histograms, control: parental cells
T5 construct: whole, on cells; also called hLILRA2
Procedure: (§1) Individual ILT family members were overexpressed in 293T cells. Each transfectant was stained with 20 μg/ml of anti-ILT4 antibodies followed by 1 μg/ml of anti-human IgG secondary mAb. Binding of the antibodies to each transfectant was measured by flow cytometry.

human LILRA4 = target: T6, human LILRA4 (human, UniProt P59901 24-499); test: as above
T6 construct: whole, on cells; also called hLILRA4
Procedure: as §1

human LILRA5 [6] = target: T7, human LILRA5 (human, UniProt A6NI73 42-299); test: as above
T7 construct: whole, on cells; also called hLILRA5
Procedure: as §1

human LILRA6 = target: T8, human LILRA6 (human, UniProt Q6PI73 24-481); test: as above
T8 construct: whole, on cells; also called hLILRA6
Procedure: as §1

human ILT2 = target: T9, human ILT2 (human, UniProt Q8NHL6 24-650); test: as above
T9 construct: whole, on cells; also called hILT2
Procedure: as §1

human ILT3 = target: T10, human ILT3 (human, UniProt Q8NHJ6 22-448); test: as above
T10 construct: whole, on cells; also called hILT3
Procedure: as §1

human ILT5 = target: T11, human ILT5 (human, UniProt O75022 24-631); test: as above
T11 construct: whole, on cells; also called hILT5; LILRB3
Procedure: as §1

human LIR8 = target: T12, human LIR8 (human, UniProt O75023 24-590); test: as above
T12 construct: whole, on cells; also called hLIR8
Procedure: as §1

[7] = target: T1, human ILT4 (hILT4) expressed on cells; test: flow cytometry on hILT4-transfected CHO cells, PE anti-human IgG secondary, GMFI (PE); EC50 from the table below the graph; the table has no unit, the concentration axis is in ug/mL
rhILT4-Fc [8] = target: T13, rhILT4-Fc (human, UniProt Q8N423-1 22-461); test: flow cytometry blocking assay: antibody titrated (12 points) with rhILT4-Fc fixed at 30 µg/ml; rhILT4-Fc bound to HLA-A overexpressing CHO cells read as % Positive; blocked ligand: HLA-A; the IC50 table has no unit, the concentration axis is in ug/mL
T13 construct: also called rhILT4-Fc fusion protein with a murine Fc tail; not shown: murine Fc tail

rhILT4-Fc [9] = target: T13, rhILT4-Fc; test: flow cytometry blocking assay: antibody titrated (12 points) with rhILT4-Fc fixed at 30 µg/ml; rhILT4-Fc bound to HLA-B overexpressing CHO cells read as % Positive; blocked ligand: HLA-B; the IC50 table has no unit, the concentration axis is in ug/mL
[10] = target: T1, human ILT4 (hILT4) expressed on cells; test: flow cytometry cross-blocking on hILT4 CHO cells: unlabelled antibody titrated from 40 µg/mL, then PE-2H2.IgG1.1f at 1.5 µg/mL; competitor: PE-2H2; GMFI (PE) falls from about 330 to about 25; the table calls the value EC50 and has no unit, the concentration axis is in µg/mL
From the text: (§2) After washing, the samples were acquired on a FACSCanto™ cytometer (BD Bioscience, San Jose) and analyzed with Flowjo™ software (Tree Star, Inc, Ashland, Oreg.).

[11] = target: T1, human ILT4 (hILT4) expressed on cells; test: flow cytometry cross-blocking on hILT4 CHO cells: unlabelled antibody titrated from 40 µg/mL, then PE-21D9.IgG1.1f at 1.5 µg/mL; competitor: PE-21D9; the 21A5 curve does NOT fall: GMFI (PE) goes from about 615 up to about 665, no blocking of PE-21D9; the printed EC50 belongs to this small rise; table without unit, axis in µg/mL
From the text: as §2

[12] = target: T14, cyno ILT4 9152 extracellular domain, including His-Avi Tag (cynomolgus monkey); test: SPR ProteOn XPR36, 37 C; antibody amine-coupled to GLC chip, ILT4 ECD-His-Avi as analyte
Procedure: (§3) The antibody was amine-coupled to a GLC sensor chip in a Proteon XPR36 instrument (BioRad). […] All data were double-referenced, exported, and analyzed with BIAevaluation Software 4.1.1 using the kinetic titration model described by Karlsson et al (Karlsson et al. (2005) Analytical Biochem. 349:136). The running buffer consisted of 10 mM HEPES pH 7.4, 150 mM NaCl and 0.05% Tween-20. The assay temperature was 37° C.

hILT4-His-Avi tag [13] = target: T4, hILT4-His-Avi tag; test: SPR ProteOn XPR36, 37 C; antibody amine-coupled to GLC chip, ILT4 ECD-His-Avi as analyte; kinetic titration
Procedure: as §3

[14] = target: T14, cyno ILT4 9152 extracellular domain, …; test: as above
Procedure: as §3

human LILRA5 [15] = target: T7, human LILRA5; test: antibody titration flow cytometry binding assay on transfected cells, nonlinear regression
human LILRA1 [16] = target: T2, human LILRA1; test: flow cytometry, 293T transfectants, antibody 20 µg/ml; stacked histograms, control: parental cells
Procedure: as §1

human LILRA3 [17] = target: T3, human LILRA3; test: as above
Procedure: as §1

[18] = target: T1, human ILT4 (hILT4) expressed on cells; test: flow cytometry on human monocytes of a healthy donor, directly labelled antibody, GMFI; EC50 from the table below the graph; the table has no unit, the concentration axis is in ug/mL
From the text: In FIG. 18B, monocytes selected from a normal healthy donor's peripheral blood were stained with individual anti-ILT4 antibodies conjugated to […].

T14 sequence (chain, as listed by the source limits assumed): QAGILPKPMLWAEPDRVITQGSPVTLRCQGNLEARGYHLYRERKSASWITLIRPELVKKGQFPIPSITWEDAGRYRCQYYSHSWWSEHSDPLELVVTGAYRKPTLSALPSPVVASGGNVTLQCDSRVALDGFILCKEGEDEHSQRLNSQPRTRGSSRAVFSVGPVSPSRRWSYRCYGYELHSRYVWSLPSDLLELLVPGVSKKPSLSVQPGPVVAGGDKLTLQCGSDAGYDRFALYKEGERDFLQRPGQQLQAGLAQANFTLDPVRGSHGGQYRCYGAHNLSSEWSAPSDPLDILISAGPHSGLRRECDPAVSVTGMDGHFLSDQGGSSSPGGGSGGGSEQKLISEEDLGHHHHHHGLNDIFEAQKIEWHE
T4 sequence (Q8N423 other isoform, or with tags, fused parts or gaps): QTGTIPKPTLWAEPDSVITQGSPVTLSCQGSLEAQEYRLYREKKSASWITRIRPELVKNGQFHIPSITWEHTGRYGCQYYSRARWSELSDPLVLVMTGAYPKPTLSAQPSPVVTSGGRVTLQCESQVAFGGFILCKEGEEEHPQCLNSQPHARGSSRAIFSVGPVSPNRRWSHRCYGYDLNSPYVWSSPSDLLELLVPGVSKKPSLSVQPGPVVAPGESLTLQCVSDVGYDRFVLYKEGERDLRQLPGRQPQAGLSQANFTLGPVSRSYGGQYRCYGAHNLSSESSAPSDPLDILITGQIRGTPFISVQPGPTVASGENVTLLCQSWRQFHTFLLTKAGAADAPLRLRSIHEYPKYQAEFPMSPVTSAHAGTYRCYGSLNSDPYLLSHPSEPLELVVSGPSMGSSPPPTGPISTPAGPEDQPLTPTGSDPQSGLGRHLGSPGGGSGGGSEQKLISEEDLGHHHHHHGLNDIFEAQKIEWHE
T1 sequence (Q8N423 other isoform, or with tags, fused parts or gaps): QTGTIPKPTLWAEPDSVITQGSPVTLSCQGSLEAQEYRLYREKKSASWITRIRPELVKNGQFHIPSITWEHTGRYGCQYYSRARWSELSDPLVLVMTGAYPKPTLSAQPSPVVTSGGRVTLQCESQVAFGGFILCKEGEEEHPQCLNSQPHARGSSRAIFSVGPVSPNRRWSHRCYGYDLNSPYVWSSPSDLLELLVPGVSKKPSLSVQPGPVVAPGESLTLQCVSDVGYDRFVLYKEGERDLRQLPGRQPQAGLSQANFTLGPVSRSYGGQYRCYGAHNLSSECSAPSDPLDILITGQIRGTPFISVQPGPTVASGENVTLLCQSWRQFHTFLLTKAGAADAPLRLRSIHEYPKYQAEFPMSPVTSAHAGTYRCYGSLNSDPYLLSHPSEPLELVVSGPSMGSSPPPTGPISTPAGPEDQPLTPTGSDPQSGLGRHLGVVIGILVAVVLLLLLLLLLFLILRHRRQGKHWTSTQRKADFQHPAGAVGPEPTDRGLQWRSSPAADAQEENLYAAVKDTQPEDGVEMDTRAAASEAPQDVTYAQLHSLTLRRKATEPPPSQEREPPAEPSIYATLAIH
T3 sequence (Q8N6C8 24-439): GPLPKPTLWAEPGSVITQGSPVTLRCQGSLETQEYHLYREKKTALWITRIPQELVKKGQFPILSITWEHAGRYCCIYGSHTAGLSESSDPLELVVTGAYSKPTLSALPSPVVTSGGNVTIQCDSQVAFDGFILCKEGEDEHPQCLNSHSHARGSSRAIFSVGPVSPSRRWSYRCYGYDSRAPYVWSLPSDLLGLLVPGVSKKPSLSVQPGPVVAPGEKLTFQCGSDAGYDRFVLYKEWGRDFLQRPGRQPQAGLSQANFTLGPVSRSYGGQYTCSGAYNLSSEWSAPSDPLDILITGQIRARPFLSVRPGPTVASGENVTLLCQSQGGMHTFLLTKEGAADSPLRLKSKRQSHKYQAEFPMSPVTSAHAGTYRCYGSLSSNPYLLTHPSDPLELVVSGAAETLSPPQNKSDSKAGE
T13 sequence (Q8N423 other isoform, or with tags, fused parts or gaps): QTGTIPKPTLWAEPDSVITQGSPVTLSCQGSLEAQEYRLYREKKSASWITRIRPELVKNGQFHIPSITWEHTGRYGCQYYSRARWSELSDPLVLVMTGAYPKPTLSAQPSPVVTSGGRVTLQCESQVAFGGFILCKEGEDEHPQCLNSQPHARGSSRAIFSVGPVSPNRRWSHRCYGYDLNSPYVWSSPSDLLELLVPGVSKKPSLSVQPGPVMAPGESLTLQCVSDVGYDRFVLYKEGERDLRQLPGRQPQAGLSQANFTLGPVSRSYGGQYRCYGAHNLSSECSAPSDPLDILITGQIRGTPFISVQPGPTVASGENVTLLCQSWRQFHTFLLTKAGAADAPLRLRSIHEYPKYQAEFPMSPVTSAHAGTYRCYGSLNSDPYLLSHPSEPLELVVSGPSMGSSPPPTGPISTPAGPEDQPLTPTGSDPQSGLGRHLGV
T8 sequence (Q6PI73 24-481): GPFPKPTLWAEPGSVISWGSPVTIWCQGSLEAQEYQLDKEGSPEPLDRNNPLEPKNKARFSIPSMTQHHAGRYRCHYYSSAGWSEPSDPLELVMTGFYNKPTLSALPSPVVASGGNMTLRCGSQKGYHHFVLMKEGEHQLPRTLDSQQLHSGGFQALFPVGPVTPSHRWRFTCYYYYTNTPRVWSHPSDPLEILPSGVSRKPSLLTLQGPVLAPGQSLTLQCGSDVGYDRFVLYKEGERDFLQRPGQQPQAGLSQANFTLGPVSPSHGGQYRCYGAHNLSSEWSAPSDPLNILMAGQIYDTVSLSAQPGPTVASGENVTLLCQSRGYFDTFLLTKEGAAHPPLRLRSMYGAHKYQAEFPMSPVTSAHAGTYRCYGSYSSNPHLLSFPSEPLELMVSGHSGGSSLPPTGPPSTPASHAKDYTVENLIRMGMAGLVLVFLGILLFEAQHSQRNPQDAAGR
T5 sequence (Q8N149 24-483): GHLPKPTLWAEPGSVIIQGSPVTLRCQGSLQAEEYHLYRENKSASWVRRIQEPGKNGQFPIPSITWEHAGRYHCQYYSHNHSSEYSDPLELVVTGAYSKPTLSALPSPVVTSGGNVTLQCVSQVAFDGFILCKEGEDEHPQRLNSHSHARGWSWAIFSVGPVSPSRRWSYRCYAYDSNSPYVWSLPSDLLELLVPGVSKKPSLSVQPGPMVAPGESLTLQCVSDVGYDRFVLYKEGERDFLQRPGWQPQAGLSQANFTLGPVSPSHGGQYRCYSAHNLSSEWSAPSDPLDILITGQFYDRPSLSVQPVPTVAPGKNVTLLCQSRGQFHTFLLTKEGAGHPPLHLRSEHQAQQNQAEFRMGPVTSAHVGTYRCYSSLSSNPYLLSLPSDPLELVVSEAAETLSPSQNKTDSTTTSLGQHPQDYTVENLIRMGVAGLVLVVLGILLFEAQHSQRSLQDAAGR
T6 sequence (P59901 24-499): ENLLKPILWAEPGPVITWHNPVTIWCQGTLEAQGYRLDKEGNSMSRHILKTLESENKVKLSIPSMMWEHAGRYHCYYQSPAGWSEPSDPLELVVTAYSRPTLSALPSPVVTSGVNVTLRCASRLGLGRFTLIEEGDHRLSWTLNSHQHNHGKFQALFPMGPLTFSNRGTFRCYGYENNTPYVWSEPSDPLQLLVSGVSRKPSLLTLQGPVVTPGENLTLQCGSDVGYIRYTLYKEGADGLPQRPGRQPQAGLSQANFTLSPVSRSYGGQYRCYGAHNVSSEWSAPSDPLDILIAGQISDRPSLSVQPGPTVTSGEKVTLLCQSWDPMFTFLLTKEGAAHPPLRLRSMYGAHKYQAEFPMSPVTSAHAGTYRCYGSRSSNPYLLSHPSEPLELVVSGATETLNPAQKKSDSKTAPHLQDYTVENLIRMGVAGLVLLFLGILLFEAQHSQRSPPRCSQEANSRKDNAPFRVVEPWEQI
T12 sequence (O75023 24-590): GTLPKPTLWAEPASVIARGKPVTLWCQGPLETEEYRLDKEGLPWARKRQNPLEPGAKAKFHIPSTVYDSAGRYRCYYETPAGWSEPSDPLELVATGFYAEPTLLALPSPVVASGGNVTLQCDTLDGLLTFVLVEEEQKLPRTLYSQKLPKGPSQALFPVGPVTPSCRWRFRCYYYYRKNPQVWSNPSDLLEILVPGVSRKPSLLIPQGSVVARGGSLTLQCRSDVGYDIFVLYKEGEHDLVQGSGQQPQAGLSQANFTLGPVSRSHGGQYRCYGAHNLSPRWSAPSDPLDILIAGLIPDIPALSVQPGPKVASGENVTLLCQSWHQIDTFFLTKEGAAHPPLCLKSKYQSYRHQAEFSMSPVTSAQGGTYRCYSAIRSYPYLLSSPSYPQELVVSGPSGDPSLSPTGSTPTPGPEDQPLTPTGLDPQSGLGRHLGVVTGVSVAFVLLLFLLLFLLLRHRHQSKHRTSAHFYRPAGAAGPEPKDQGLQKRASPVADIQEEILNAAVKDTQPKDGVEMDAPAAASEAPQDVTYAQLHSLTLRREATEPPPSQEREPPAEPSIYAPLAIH
T9 sequence (Q8NHL6 24-650): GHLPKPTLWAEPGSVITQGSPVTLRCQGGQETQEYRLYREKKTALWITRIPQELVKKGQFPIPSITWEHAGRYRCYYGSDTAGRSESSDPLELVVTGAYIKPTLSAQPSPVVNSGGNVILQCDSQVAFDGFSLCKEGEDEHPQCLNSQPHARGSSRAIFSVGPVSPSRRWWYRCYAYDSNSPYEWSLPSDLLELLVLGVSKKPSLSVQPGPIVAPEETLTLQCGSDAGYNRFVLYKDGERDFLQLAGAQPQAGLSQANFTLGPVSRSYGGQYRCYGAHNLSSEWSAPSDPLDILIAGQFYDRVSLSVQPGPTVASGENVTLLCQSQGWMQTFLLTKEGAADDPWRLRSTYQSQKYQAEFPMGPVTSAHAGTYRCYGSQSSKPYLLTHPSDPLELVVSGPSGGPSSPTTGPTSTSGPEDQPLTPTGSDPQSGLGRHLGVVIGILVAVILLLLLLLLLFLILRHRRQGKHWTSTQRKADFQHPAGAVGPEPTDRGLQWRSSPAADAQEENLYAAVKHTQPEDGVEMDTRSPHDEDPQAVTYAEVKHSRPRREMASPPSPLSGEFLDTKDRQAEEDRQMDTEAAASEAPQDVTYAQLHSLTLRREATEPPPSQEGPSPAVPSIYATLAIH

EC50 [1]: 0.091 µg/mL
EC50 (human LILRA1 [2]): 12.5 µg/mL
EC50 (human LILRA3 [3]): 9.18 µg/mL
Kd (hILT4-His-Avi tag [4]): 0.14 nM
app. act. (hILT4-His-Avi tag [4]): 126%
koff (hILT4-His-Avi tag [4]): 0.00017 s⁻¹
kon (hILT4-His-Avi tag [4]): 1.2e+06 M⁻¹ s⁻¹
Kd (hILT4-His-Avi tag [5]): 0.023 nM
app. act. (hILT4-His-Avi tag [5]): 98%
koff (hILT4-His-Avi tag [5]): 1.2e-05 s⁻¹
kon (hILT4-His-Avi tag [5]): 520000 M⁻¹ s⁻¹
binding result (human LILRA2): no binding (tested: 20 µg/ml)
binding result (human LILRA4): no binding (tested: 20 µg/ml)
binding result (human LILRA5 [6]): no binding (tested: 20 µg/ml)
binding result (human LILRA6): no binding (tested: 20 µg/ml)
binding result (human ILT2): no binding (tested: 20 µg/ml)
binding result (human ILT3): no binding (tested: 20 µg/ml)
binding result (human ILT5): no binding (tested: 20 µg/ml)
binding result (human LIR8): no binding (tested: 20 µg/ml)
EC50 [7]: 0.0518 µg/mL
IC50 (rhILT4-Fc [8]): 3.83 µg/mL
IC50 (rhILT4-Fc [9]): 1.61 µg/mL
EC50 [10]: 0.0738 µg/mL
EC50 [11]: 0.0898 µg/mL
B1: 21A5.IgG1.3 (antibody, V domains shown)
VH: QVQLVQSGAEVKKPGASVKVSCKASGYTFTDYYLHWVRQAPGQGLEWMGIFHPSGDITSSAQNFQGRVTMIRDTSTSTVYMELSSLRSEDTAVYYCARGGVLRYLDWSHAFDIWGQGTMVTVSS
VL: EIALTQSPGTLSLSPGERATLSCRASQSVSSSYLAWYQQKPGQAPRLLIYGASSRATGIPDRFSGSGSGTDFTLTISRLEPEDFAVYYCQQYGSTFGGGTKVEIKR
notes: Fully human antibody, IgG1.3, kappa; also called 21A5 WT; 21A5WT

fold weaker affinity than for human ILT4 [12]: ~12 fold
Kd (hILT4-His-Avi tag [4]): 0.31 nM and 0.32 nM and 0.37 nM
koff (hILT4-His-Avi tag [4]): 0.001 s⁻¹ and 0.0011 s⁻¹
kon (hILT4-His-Avi tag [4]): 3.3e+06 M⁻¹ s⁻¹ and 3.2e+06 M⁻¹ s⁻¹ and 3e+06 M⁻¹ s⁻¹
Kd (hILT4-His-Avi tag [13]): 0.32 nM
koff (hILT4-His-Avi tag [13]): 0.00026 s⁻¹
kon (hILT4-His-Avi tag [13]): 820000 M⁻¹ s⁻¹
Kd [14]: 4 nM
koff [14]: 0.0035 s⁻¹
kon [14]: 880000 M⁻¹ s⁻¹
Kd (hILT4-His-Avi tag [5]): 0.5 nM
app. act. (hILT4-His-Avi tag [5]): 70%
koff (hILT4-His-Avi tag [5]): 0.00054 s⁻¹
kon (hILT4-His-Avi tag [5]): 1.1e+06 M⁻¹ s⁻¹
EC50 [7]: 0.0127 µg/mL
B2: 21D9.IgG1.3 (antibody)
heavy: EGQLLESGGDLVQPGGSLRLSCATSGFTFSNYAMNWVRQAPGKGLEWISVISVSGGSTYYADSVKGRFTISRDNSKNTLYLQMNSLRAEDTAVYYCAKDYYYDSGSYYDSFFDYWGQGTLVTVSSASTKGPSVFPLAPSSKSTSGGTAALGCLVKDYFPEPVTVSWNSGALTSGVHTFPAVLQSSGLYSLSSVVTVPSSSLGTQTYICNVNHKPSNTKVDKRVEPKSCDKTHTCPPCPAPEAEGAPSVFLFPPKPKDTLMISRTPEVTCVVVDVSHEDPEVKFNWYVDGVEVHNAKTKPREEQYNSTYRVVSVLTVLHQDWLNGKEYKCKVSNKALPAPIEKTISKAKGQPREPQVYTLPPSREEMTKNQVSLTCLVKGFYPSDIAVEWESNGQPENNYKTTPPVLDSDGSFFLYSKLTVDKSRWQQGNVFSCSVMHEALHNHYTQKSLSLSPG
light: not shown
notes: also called 21D9 WT; ILT4.6.IgG1.3

EC50 [1]: 0.039 µg/mL
EC50 (human LILRA5 [15]): ~313 µg/mL
Kd (hILT4-His-Avi tag [4]): 0.39 nM
app. act. (hILT4-His-Avi tag [4]): 93%
Kd (hILT4-His-Avi tag [13]): 0.33 nM
Kd (hILT4-His-Avi tag [5]): 0.58 nM
app. act. (hILT4-His-Avi tag [5]): 94%
binding result (human LILRA1 [16]): no binding (tested: 20 µg/ml)
binding result (human LILRA2): no binding (tested: 20 µg/ml)
binding result (human LILRA3 [17]): no binding (tested: 20 µg/ml)
binding result (human LILRA4): no binding (tested: 20 µg/ml)
binding result (human LILRA6): no binding (tested: 20 µg/ml)
binding result (human ILT2): no binding (tested: 20 µg/ml)
binding result (human ILT3): no binding (tested: 20 µg/ml)
binding result (human ILT5): no binding (tested: 20 µg/ml)
binding result (human LIR8): no binding (tested: 20 µg/ml)
EC50 [7]: 0.00416 µg/mL
EC50 [18]: 0.0341 µg/mL
B3: 21D9.e.IgG1.3 (antibody, V domains shown)
VH: EVQLLESGGGLVQPGGSLRLSCAASGFTFSNYAMNWVRQAPGKGLEWVSVISVSGGSTYYADSVKGRFTISRDNSKNTLYLQMNSLRAEDTAVYYCAKDYYYDSGSYYDSFFDYWGQGTLVTVSS
VL: not shown
notes: Germline reversion mutant of 21D9 with all four VH reversions; light chain of 21D9; IgG1.3; also called ILT4.8.IgG1.3; ILT4.8
